In paper PMC10764958:

Molecular target: SARS2-NP SIM1A (poly-SUMOylated) (SARS-CoV-2) (UniProt P0DTC9)
Assay: MST
Settings: MST: PBS with 0.05% Tween, room temperature

Sequence: CACUCGCUAUGUCGAUAACAACUUCUGUGGCCCUGAUGGCUACCCUCUUGAGUGCAUUAAAGA [Cy5-RNA (SARS-CoV-2 RNA)]
- Kd: 2.71 nM
